Target: NPM1 (UniProt P06748)
Test: Co-IP of Flag-MST4 with HA-NPM1
Details: reference: Flag-MST4 wild type; sites T178

binding against the reference: weaker
Substance: MST4 (from UniProt Q9P289) Flag-MST4 T178A

Reference: PMC12436196
